The results in this text go back to patent publication US20260061042A1, “POLYNUCLEOTIDE COMPOSITIONS AND USES THEREOF” (Pfizer Inc., priority 2024, published 2026).

This data set concerns E. coli strain CFT073 expressing the fimbrial adhesin PapG. Briefly: PapG hemagglutination inhibition (HAI) assay on sera of mice immunized with PapG modRNA LNPs. Type of data set: in vivo. The note with it: 1 μg, 50 μl IM; for Step Titer GMT (HAI): weeks 0, 4, bleed week 6, GMT of individual titers; for Step Titer Pool (HAI): weeks 0, 4, bleed week 6, serum pool. An excerpt: Escherichia coli to the uroepithelium of human kidney. The PapG lectin binds to the globoside (GbO4) glycolipid, which is enriched in urinary tract tissue and consists of the tetrasacharide GalNAcβ1-3Galα1-4Galβ1-4Glc linked to ceramide. Here we present the use of a hemagglutination inhibition assay (HAI) to determine vaccine functional responses to protein subunit PapG or mRNA-expressed PapG antigens. In this assay the agglutination of human red blood cells (hRBCs) expressing GbO4 is caused by live E. coli CFT073 bacteria expressing PapG. The HAI assay measures the ability of PapG-elicited antibodies to prevent hRBC agglutination, exemplifying inhibition of the key bacterial adherence mechanism leading to clinical pyelonephritis. The assay was used to characterize the functional activity of PapG monoclonal antibodies (mAbs) raised against a PapG lectin domain subunit antigen. PapG HAI data from a mouse immunogenicity study are described that evaluated various 5 monovalent PapG modRNA LNPs and a PapG subunit comparator.
In this mouse study immunogenicity of different PapG mRNA constructs were evaluated. […]
iii. PapG Hemagglutination Inhibition Assay (HAI) 1. Preparation of Single Use Frozen E. coli CFT073 Banks Frozen bacterial stocks for use in the PapG HAI are stored at a concentration of ˜15 OD/mL. For stock preparation, take 6 ×100 μL of frozen parental strain CFT073 glycerol stock to seed six overnight cultures with ˜85 mL Luria's Broth (LB) each in 250 mL vented flasks. Flasks are shaken at 200 rpm and 37° C. overnight. On the same day, prepare 100 mL LB media with 30% glycerol and 0.4% sucrose by mixing […] 80% Glycerol with 0.8 mL 50% Sucrose in 64 mL LB and pre-chill at 4° C. After ˜16 h growth, determine the OD600 nm of each flask with the SpectraMax M5e plate reader by adding 100 μL culture to 900 μL LB (1:10 dilution). After reading the OD600, harvest cells by pelleting in a centrifuge at 4,000g, 4° C., for 30 minute. Determine the total OD of each of the six flasks, by multiplying the volume by OD/mL of each flask and divide by 15 OD to give the appropriate pellet resuspension volume. Discard supernatants and resuspend all pellets in the pre-chilled LB cryopreservant containing 30% glycerol and 0.4% sucrose, with a final volume as calculated above. Pool all resuspended pellets and mix gently, then aliquot into 1 mL/cryotube, and freeze at −70° C.
2. Preparing 10% hRBC Working Solution From Stock
Gently mix human red blood cells (hRBC) bottle (Rockland) by rocking ˜20×times, pipet out 10 mL of the hRBCs into a 15 ml conical tube. Centrifuge at 2,000 rpm(˜990×g) for 10 minutes and 4° C. Aspirate and discard the supernatant, then resuspend the pellet with 9 mL 4° C. PBS. The packed hRBCs in 15 mL conical tube should constitute roughly 1 mL of this total volume. Store these 10% hRBCs at 4° C. until use. […]
iv. PapG Hemagglutination Inhibition (HAI) Assay
The PapG hemagglutination inhibition (HAI) assay uses human red blood cells (hRBCs), which naturally express the PapG ligand GbO4 (globotetraosyl ceramide) on the cell surface, and the E. coli strain CFT073 expressing the fimbrial adhesin PapG. Upon mixing bacteria with hRBCs, […] cells remain suspended (presenting as a cloudy well), while no binding results in the red blood cells falling out of solution towards the center of the well (observed as pellet).
The total final well volume is 100 μL, with serum dilutions comprising 25 μL of this volume, strain CFT073 cells in […] volume, and hRBCs in a 50 μL volume. The assay plate is a V-bottom plate to which 25 μL 4° C. PBS is initially added to all wells. The positive control wells receive an additional 25 μL 4° C. PBS. The no-serum negative control consists of E. coli CFT073 cells plus hRBCs only (resulting agglutinated well appears cloudy). To accommodate pre-diluted sera transferred from the serum Master Dilution plate (MDP) an extra 5 μL 4° C. PBS is added to wells in Row A of the assay plate (columns 1 to 12). […]

B1: BMD576_PapGLD WT_DAF-GPI: monovalent PapG modRNA LNP; RNA construct SEQ ID NO: 45 (nucleic acid)
chain: AGGAGGACUGGUCGAACCUGCAUAGUGAUCAUAAGGUCAGCAUAGCCACCAUGGAGACCGACACACUGCUGCUGUGGGUGCUUUUGUUGUGGGUGCCCGGUUCUACCGGAUGGAACAACAUCGUGUUCUACAGCCUGGGCAACGUGAACAGCUACCAAGGCGGCAACGUGGUGAUCACACAGAGACCUCAGUUCAUCACAAGCUGGAGACCCGGCAUCGCCACCGUGACCUGGAAUCAGUGCAACGGCCCCGAGUUCGCCGACGGCAGCUGGGCCUACUACAGAGAGUACAUCGCCUGGGUGGUGUUCCCCAAGAAGGUGAUGACCAAGAACGGCUACCCCCUGUUCAUCGAGGUGCACAACAAGGGCAGCUGGAGCGAGGAGAACACCGGCGACAGCGACAGCUACUUCUUCCUGAAGGGCUACAAGUGGGACGAGAGAGCCUUCGACGCCGGCAACCUGUGUCAGAAGCCCGGCGAGACCACAAGACUGACCGAGAAGUUCAACGACAUCAUCUUCAAGGUGGCCCUGCCCGCCGACCUGCCCCUGGGCGACUACAGCGUGACCAUCCCCUACACAAGCGGCAUUCAGAGACACUUCGCUAGCUACCUGGGCGCUAGAUUCAAGAUCCCCUACAACGUGGCCAAGACCCUGCCUAGAGAGAACGAGAUGCUGUUCCUGUUCAAGAACAUCGGCGGCAGUUCUGGUGGCGGUGGUUCAAGUGGUAGUGGCAGUUCAAGUGGGACAACACGACUGUUGAGCGGGCAUACGUGUUUUACGCUGACAGGUCUUCUGGGCACGCUGGUUACUAUGGGCUUGCUUACGUGAUGAGCUCGCUUUCUUGCUGUCCAAUUUCUAUUAAAGGUUCCUUUGUUCCCUAAGUCCAACUACUAAACUGGGGGAUAUUAUGAAGGGCCUUGAGCAUCUGGAUUCUGCCUAAUAAAAAACAUUUAUUUUCAUUGCAAAAAAAAAAAAAAAAAAAAAAAAAAAAAAAAAAAAAAAAAAAAAAAAAAAAAAAAAAAAAAAAAAAAAAAAAAAAAAAAAA
modifications: modRNA in LNP
In the case of B1, the “Step Titer GMT (HAI)” value is given as 94,822 and the “Step Titer Pool (HAI)” value was 81,000.

B2: BMD576_PapGLD K172A_DAF-GPI: monovalent PapG modRNA LNP; RNA construct SEQ ID NO: 52 (nucleic acid)
chain: AGGAGGACUGGUCGAACCUGCAUAGUGAUCAUAAGGUCAGCAUAGCCACCAUGGAGACCGACACACUGCUGCUGUGGGUGCUUUUGUUGUGGGUGCCCGGUUCUACCGGAUGGAACAACAUCGUGUUCUACAGCCUGGGCAACGUGAACAGCUACCAAGGCGGCAACGUGGUGAUCACACAGAGACCUCAGUUCAUCACAAGCUGGAGACCCGGCAUCGCCACCGUGACCUGGAAUCAGUGCAACGGCCCCGAGUUCGCCGACGGCAGCUGGGCCUACUACAGAGAGUACAUCGCCUGGGUGGUGUUCCCCAAGAAGGUGAUGACCAAGAACGGCUACCCCCUGUUCAUCGAGGUGCACAACAAGGGCAGCUGGAGCGAGGAGAACACCGGCGACAGCGACAGCUACUUCUUCCUGAAGGGCUACAAGUGGGACGAGAGAGCCUUCGACGCCGGCAACCUGUGUCAGAAGCCCGGCGAGACCACAAGACUGACCGAGAAGUUCAACGACAUCAUCUUCAAGGUGGCCCUGCCCGCCGACCUGCCCCUGGGCGACUACAGCGUGACCAUCCCCUACACAAGCGGCAUUCAGAGACACUUCGCUAGCUACCUGGGCGCUAGAUUCGCCAUCCCCUACAACGUGGCCAAGACCCUGCCUAGAGAGAACGAGAUGCUGUUCCUGUUCAAGAACAUCGGCGGCAGUUCUGGUGGCGGUGGUUCAAGUGGUAGUGGCAGUUCAAGUGGGACAACACGACUGUUGAGCGGGCAUACGUGUUUUACGCUGACAGGUCUUCUGGGCACGCUGGUUACUAUGGGCUUGCUUACGUGAUGAGCUCGCUUUCUUGCUGUCCAAUUUCUAUUAAAGGUUCCUUUGUUCCCUAAGUCCAACUACUAAACUGGGGGAUAUUAUGAAGGGCCUUGAGCAUCUGGAUUCUGCCUAAUAAAAAACAUUUAUUUUCAUUGCAAAAAAAAAAAAAAAAAAAAAAAAAAAAAAAAAAAAAAAAAAAAAAAAAAAAAAAAAAAAAAAAAAAAAAAAAAAAAAAAAA
modifications: modRNA in LNP
As to B2, the “Step Titer GMT (HAI)” value is recorded as 98,165 and the “Step Titer Pool (HAI)” value is reported as 81,000.

B3: BMD576_PapG-DSF WT_DAF-GPI: monovalent PapG modRNA LNP; RNA construct SEQ ID NO: 65 (nucleic acid)
chain: AGGAGGACUGGUCGAACCUGCAUAGUGAUCAUAAGGUCAGCAUAGCCACCAUGGAGACCGACACCCUCCUGCUGUGGGUGCUGUUACUGUGGGUGCCCGGUAGCACCGGCUGGAACAACAUCGUGUUCUACAGCCUGGGCAACGUGAACAGCUACCAAGGCGGCAACGUGGUGAUCACACAGAGACCUCAGUUCAUCACAAGCUGGAGACCCGGCAUCGCCACCGUGACCUGGAAUCAGUGCAACGGCCCCGAGUUCGCCGACGGCAGCUGGGCCUACUACAGAGAGUACAUCGCCUGGGUGGUGUUCCCCAAGAAGGUGAUGACCAAGAACGGCUACCCCCUGUUCAUCGAGGUGCACAACAAGGGCAGCUGGAGCGAGGAGAACACCGGCGACAGCGACAGCUACUUCUUCCUGAAGGGCUACAAGUGGGACGAGAGAGCCUUCGACGCCGGCAACCUGUGUCAGAAGCCGGGGGAGACCACAAGACUUACCGAGAAGUUCAACGACAUCAUCUUCAAGGUGGCCCUGCCCGCCGACCUGCCCCUGGGCGACUACAGCGUGACCAUCCCCUACACAAGCGGCAUUCAGAGACACUUCGCUAGCUACCUGGGCGCUAGAUUCAAGAUCCCCUACAACGUGGCCAAGACCCUGCCUAGAGAGAACGAGAUGCUGUUCCUGUUCAAGAACAUCGGCGGCUGCAGACCUAGCGCUCAGAGCCUGGAGAUCAAGCACGGCGACCUGAGCAUCAACAGCGCCAACAACCACUACGCCGCUCAGACCCUGAGCGUGAGCUGCGACGUGCCCGCCAACAUCAGAUUCAUGCUGCUGAGAUCAACCACCCCCACCUACAGCCACGGCAAGAAGUUCAGCGUGGGCCUGGGCCACGGCUGGGACAGCAUCGUGAGCGUGAACGGCGUGGACACGGGCGAGACCACUAUGCGUUGGUACAAGGCCGGCACACAGAGCCUGACCAUCGGCAGCAGACUGUAUGGCGAAAGCUCCAAAAUCCAACCCGGCGUGCUGUCGGGGAGCGCCACCCUGCUGAUGAUACUGCCCGGAGGCAGCAGCGGCGGCGCCGACGUGCAGAUCAACAUCAGAGGCAACGUGUAUAUUCCGCCUAGCAGUGGUGGUGGGGGUAGCUCCGGCUCCGGAAGCAGCUGCGAGGGCAUCAGCCUGCUGGCUCAGAACACAAGCUGGCUGCUGCUGCUGCUGCUGAGCCUGAGCCUGCUGCAAGCCACCGACUUCAUGAGCCUGUGAUGAGCUCGCUUUCUUGCUGUCCAAUUUCUAUUAAAGGUUCCUUUGUUCCCUAAGUCCAACUACUAAACUGGGGGAUAUUAUGAAGGGCCUUGAGCAUCUGGAUUCUGCCUAAUAAAAAACAUUUAUUUUCAUUGCAAAAAAAAAAAAAAAAAAAAAAAAAAAAAAAAAAAAAAAAAAAAAAAAAAAAAAAAAAAAAAAAAAAAAAAAAAAAAAAAAA
modifications: modRNA in LNP
In the case of B3, the “Step Titer GMT (HAI)” value is listed as 89,753 and the “Step Titer Pool (HAI)” value is 81,000.
